Source: PMC3463355

Columns and labels:
[1] = target: PARP-1 (full-length) (human, UniProt P09874 1-1014, V762A); test: HI-FI FRET
[2] = target: N-parp (Zn1-Zn3 and BRCT) (UniProt P09874 1-486); test: HI-FI FRET
N-parp (Zn1-Zn3 and BRCT), sequence (P09874 1-486): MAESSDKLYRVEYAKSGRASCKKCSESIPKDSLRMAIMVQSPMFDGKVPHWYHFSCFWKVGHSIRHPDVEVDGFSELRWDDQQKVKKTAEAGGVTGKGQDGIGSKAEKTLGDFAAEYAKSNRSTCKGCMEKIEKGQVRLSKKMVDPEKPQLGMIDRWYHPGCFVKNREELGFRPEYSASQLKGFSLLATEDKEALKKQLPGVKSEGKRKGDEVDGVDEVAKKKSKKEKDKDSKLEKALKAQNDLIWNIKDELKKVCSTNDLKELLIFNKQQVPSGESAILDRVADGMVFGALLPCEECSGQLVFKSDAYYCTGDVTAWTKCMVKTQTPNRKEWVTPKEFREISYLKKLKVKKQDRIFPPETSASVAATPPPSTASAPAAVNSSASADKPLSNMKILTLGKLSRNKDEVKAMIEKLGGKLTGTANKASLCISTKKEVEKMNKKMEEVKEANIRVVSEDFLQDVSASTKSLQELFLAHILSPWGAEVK

PARP-1 (full-length), sequence (P09874 whole entry V762A): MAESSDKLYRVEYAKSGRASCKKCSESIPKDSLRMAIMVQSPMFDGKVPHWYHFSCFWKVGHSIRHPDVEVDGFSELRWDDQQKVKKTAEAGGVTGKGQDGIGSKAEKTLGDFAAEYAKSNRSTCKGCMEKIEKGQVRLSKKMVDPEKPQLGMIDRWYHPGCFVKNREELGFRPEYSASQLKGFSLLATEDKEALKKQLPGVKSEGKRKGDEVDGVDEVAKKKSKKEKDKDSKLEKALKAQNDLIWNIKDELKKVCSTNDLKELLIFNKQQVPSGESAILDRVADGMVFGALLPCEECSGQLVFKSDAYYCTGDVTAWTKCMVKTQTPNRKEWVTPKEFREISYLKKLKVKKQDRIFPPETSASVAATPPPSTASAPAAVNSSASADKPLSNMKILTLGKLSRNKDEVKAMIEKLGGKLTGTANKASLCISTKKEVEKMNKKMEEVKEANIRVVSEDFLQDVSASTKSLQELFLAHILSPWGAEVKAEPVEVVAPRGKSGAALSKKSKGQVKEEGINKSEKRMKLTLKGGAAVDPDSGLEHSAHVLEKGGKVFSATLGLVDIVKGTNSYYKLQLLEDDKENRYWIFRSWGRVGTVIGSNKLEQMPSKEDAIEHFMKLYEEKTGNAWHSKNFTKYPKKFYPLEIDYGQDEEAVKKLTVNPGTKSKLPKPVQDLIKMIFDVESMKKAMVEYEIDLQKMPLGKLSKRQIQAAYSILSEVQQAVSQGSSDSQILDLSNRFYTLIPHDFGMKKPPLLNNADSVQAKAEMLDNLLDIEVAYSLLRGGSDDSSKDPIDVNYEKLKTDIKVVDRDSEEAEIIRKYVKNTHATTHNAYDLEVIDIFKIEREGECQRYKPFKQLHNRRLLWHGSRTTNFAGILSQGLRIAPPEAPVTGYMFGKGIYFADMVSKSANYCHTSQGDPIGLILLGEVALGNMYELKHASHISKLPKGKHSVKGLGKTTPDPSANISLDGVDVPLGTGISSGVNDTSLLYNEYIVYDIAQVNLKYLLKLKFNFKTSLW

Row | Binder | Kd [1] [nM] | Kd [2] [nM]
1 | 30AATT (dsDNA, 4 central bp of 30Blunt (TGTG) replaced by AATT) DNA 1: ATCAGATAGCATCAATTCGGCCGCTTAGGG DNA 2: CCCTAAGCGGCCGAATTGATGCTATCTGAT | 8.5 ± 2.1 | 25.7 ± 0.9
2 | 30Blunt (dsDNA) DNA 1: ATCAGATAGCATCTGTGCGGCCGCTTAGGG DNA 2: CCCTAAGCGGCCGCACAGATGCTATCTGAT | 31.7 ± 6.9 | 62.2 ± 10.2
